Source: publication PMC5233613, “Structural insights into the recognition of phosphorylated FUNDC1 by LC3B in mitophagy” (Protein & Cell, 2016)
Non-standard residues stand in square brackets, D forms with d. No end group written: not given here. pY = N[C@@H](Cc1ccc(OP(=O)(O)O)cc1)C(=O)O; pS = N[C@@H](COP(=O)(O)O)C(=O)O

Tests used:
Test in all cases: ITC; MicroCal iTC200, 25 °C; proteins 0.25 mmol/L and peptides 3 mmol/L, dialyzed against buffer B (20 mmol/L Tris-HCl, 200 mmol/L NaCl, 1 mmol/L EDTA, pH 8.0); single binding site model
Details in all cases: both partners purified
[1] = target: microtubule-associated protein light chain 3 beta (LC3B), wild type, full-length 1-125 (human, UniProt Q9GZQ8 1-120)
LC3B R11A = LC3B R11A (human, UniProt Q9GZQ8 1-120, R11A)
LC3B R11E = LC3B R11E (human, UniProt Q9GZQ8 1-120, R11E)
LC3B R10E = LC3B R10E (human, UniProt Q9GZQ8 1-120, R10E)
LC3B R10A = LC3B R10A (human, UniProt Q9GZQ8 1-120, R10A)
LC3B R70E = LC3B R70E (human, UniProt Q9GZQ8 1-120, R70E)
LC3B K49R = LC3B K49R (human, UniProt Q9GZQ8 1-120, K49R)
LC3B K49E = LC3B K49E (human, UniProt Q9GZQ8 1-120, K49E)
LC3B K49A = LC3B K49A (human, UniProt Q9GZQ8 1-120, K49A)
LC3B K51A = LC3B K51A (human, UniProt Q9GZQ8 1-120, K51A)
LC3B R70A = LC3B R70A (human, UniProt Q9GZQ8 1-120, R70A)
LC3B L53A = LC3B L53A (human, UniProt Q9GZQ8 1-120, L53A)
LC3B D19A = LC3B D19A (human, UniProt Q9GZQ8 1-120, D19A)
LC3B I23A = LC3B I23A (human, UniProt Q9GZQ8 1-120, I23A)
LC3B D48A = LC3B D48A (human, UniProt Q9GZQ8 1-120, D48A)
LC3B T50A = LC3B T50A (human, UniProt Q9GZQ8 1-120, T50A)
LC3B F7A = LC3B F7A (human, UniProt Q9GZQ8 1-120, F7A)
LC3B L47A = LC3B L47A (human, UniProt Q9GZQ8 1-120, L47A)
LC3B V46A = LC3B V46A (human, UniProt Q9GZQ8 1-120, V46A)

B1: FUNDC1 LIR peptide 10-25 phosphorylated at Tyr18 (peptide)
peptide: DYESDDDS[pY]EVLDLTE
notes: also called FUNDC1 pY18; pY18 peptide; source: synthetic peptide (GL Biochem, Shanghai)
[1]
  Kd: 16.8 ± 2.1 µM
  dH: -0.93 kcal/mol
  stoichiometry N: 1.16

B2: FUNDC1 LIR peptide 10-25 phosphorylated at Ser13 (peptide)
peptide: DYE[pS]DDDSYEVLDLTE
notes: also called FUNDC1 pS13; pS13 peptide; source: synthetic peptide (GL Biochem, Shanghai)
LC3B R11A
  Kd: 11.2 ± 0.73 µM
  dH: -4.1 kcal/mol
  stoichiometry N: 1.11
LC3B R11E
  Kd: 17.1 ± 1.05 µM
  dH: -2.39 kcal/mol
  stoichiometry N: 1.04
LC3B R10E
  Kd: 34 ± 3.46 µM
  dH: -2.83 kcal/mol
  stoichiometry N: 1.03
LC3B R10A
  Kd: 28.5 ± 2.97 µM
  dH: -3.67 kcal/mol
  stoichiometry N: 1.02
[1]
  Kd: 4.63 ± 0.13 µM
  dH: -3.81 kcal/mol
  stoichiometry N: 1.13

B3: FUNDC1 LIR peptide 10-25 phosphorylated at Ser17 (peptide)
peptide: DYESDDD[pS]YEVLDLTE
notes: also called FUNDC1 pS17; FUNDC1 pS17 peptide; source: synthetic peptide (GL Biochem, Shanghai)
LC3B R70E
  Kd: 61 ± 3.44 µM
  dH: -2.54 kcal/mol
  stoichiometry N: 1.03
LC3B K49R
  Kd: 330 ± 70 nM
  dH: -5.78 kcal/mol
  stoichiometry N: 1.17
LC3B K49E
  Kd: 120 ± 5.72 µM
  dH: -4.49 kcal/mol
  stoichiometry N: 0.93
LC3B K49A
  Kd: 3.56 ± 0.21 µM
  dH: -4.9 kcal/mol
  stoichiometry N: 1.08
LC3B K51A
  Kd: 5.92 ± 0.75 µM
  dH: -2.66 kcal/mol
  stoichiometry N: 1.03
LC3B R70A
  Kd: 15.8 ± 1.5 µM
  dH: -1.8 kcal/mol
  stoichiometry N: 1.04
LC3B L53A
  Kd: 970 ± 140 nM
  dH: -2.61 kcal/mol
  stoichiometry N: 1.03
LC3B D19A
  Kd: 2390 ± 300 nM
  dH: -2.78 kcal/mol
  stoichiometry N: 1.16
[1]
  Kd: 0.59 ± 0.06 µM
  dH: -3.51 kcal/mol
  stoichiometry N: 1
LC3B I23A
  Kd: 4.85 ± 0.25 µM
  dH: -1.53 kcal/mol
  stoichiometry N: 1.04

B4: FUNDC1 LIR peptide 10-25, unphosphorylated (peptide)
peptide: DYESDDDSYEVLDLTE
notes: FUNDC1 (Fun14 domain-containing protein 1), LIR and flanking residues 10-25; also called unphosphorylated FUNDC1 peptide; FUNDC1 peptide; source: synthetic peptide (GL Biochem, Shanghai)
LC3B D48A
  Kd: 1170 ± 150 nM
  dH: -3.03 kcal/mol
  stoichiometry N: 0.98
LC3B R11A
  Kd: 5.62 ± 0.25 µM
  dH: -4.51 kcal/mol
  stoichiometry N: 1.12
LC3B T50A
  Kd: 2810 ± 310 nM
  dH: -2.65 kcal/mol
  stoichiometry N: 1.02
LC3B F7A
  Kd: 3.52 ± 0.23 µM
  dH: -3.08 kcal/mol
  stoichiometry N: 1.17
LC3B R10A
  Kd: 11.4 ± 1.14 µM
  dH: -3.56 kcal/mol
  stoichiometry N: 1.01
[1]
  Kd: 1.78 ± 0.16 µM
  dH: -3.15 kcal/mol
  stoichiometry N: 1.02
LC3B L47A
  Kd: 3.07 ± 0.64 µM
  dH: -2.06 kcal/mol
  stoichiometry N: 1.19
LC3B V46A
  Kd: 1590 ± 190 nM
  dH: -4.86 kcal/mol
  stoichiometry N: 1.02
